Assay results reported in the supplement of paper PMC10567573.

B1: INTS3 (parent)
chain: EEITEESLEESVGKPLYLIFRNLC
B2: HSP90AB1 (parent)
chain: YHTSQSGDEMTSLSEYVSRMKETQ

Variants of: B1
Experiment: protein stability index of a GFP-peptide fusion (GPS, HEK-293T) (PSI 1-6); higher = more stable
Details: c terminus: a fixed tail appended
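Also: lentivirally expressed fusions sorted by FACS into six bins by GFP to DsRed ratio, PSI derived from sequencing read proportions per bin multiplied by bin number.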

Protein stability index of substitutions, site by site:
C24: Y 2.32, S 2.55, P 2.62, Q 2.19, W 2.08, R 3.02, V 1.68, T 2.66

Variants of: B2
Experiment: as above
Details: c terminus: a fixed tail appended

Protein stability index of substitutions, site by site:
G7: V 3.26, S 3.67, R 3.44, I 3.29, Q 3.78, K 3.33, C 3.33, F 3.17, P 3.74, N 2.83, E 4.12, W 2.99, H 3.65, Y 2.98, L 3.61, A 3.73, M 3.47, T 4.32, D 4.08
E15: R 2.85, W 1.48, F 1.99, I 2.37, H 2.96, K 3.48, Y 2.65, N 3.77, Q 3.15, L 1.99, G 2.68, A 2.6, P 1.87, D 3.02, T 2.79, S 2.87, V 1.89
M10: Q 4.05, D 4.68, E 4.54, Y 3.2, C 4.05, K 4.04, T 3.73, S 3.87, A 4.01, P 4.17, G 4.1, V 3.74, F 3.06, H 3.46, N 4.17, L 3.32, I 4.08, R 3.9, W 2.12
T3: R 3.8, P 2.81, G 3.41, E 3.07, S 3.58, V 2.96, H 3.67, W 1.53, K 3.48, N 3.42, I 3.18, Q 3.66, A 3.26, F 2.96, M 3.12, C 3.22, D 4.53
S4: E 4.38, D 3.49, Q 3.34, Y 2.21, L 2.48, M 3.61, T 3.99, A 3.86, G 3.02, W 1.96, H 3.38, K 2.07, V 3.12, N 3.39, C 3.56, I 2.51
V17: E 4.49, H 3.54, L 3.56, T 3.72, I 3.22, G 3.76, Q 4.04, K 4.08, A 3.85, R 4.27, D 4.57, C 3.27, F 3.23, Y 3.33, P 3.86, W 2.41, S 3.87, N 4.12
L13: K 3.82, A 4.37, G 4.27, N 4.34, Y 3.38, I 3.5, V 3.32, S 3.68, T 4.25, Q 4.59, H 3.88, E 4.62, C 3.52, M 4.04, D 4.11, F 2.18, P 3.74, R 4.21
S14: C 3.44, G 3.78, F 3.05, T 3.71, W 1.81, A 3.66, M 3.25, R 3.57, P 3.74, K 3.5, N 3.24, Q 3.54, Y 3.11, L 2.65, V 3.37, D 2.96, E 4.31
Y16: T 4.02, G 4, Q 4.17, L 3.41, W 2.69, C 4.16, K 3.53, H 4.1, F 3.49, P 4.02, S 4.22, I 3.09, R 3.98, E 4.37, A 4.17, M 4.16, N 4.3, V 3.79, D 4.74
S12: L 2.49, P 3.52, E 4.28, Q 3.36, N 3.64, W 2.6, D 4.14, A 3.21, Y 2.81, C 2.87, G 3.75, I 2.92, T 3.88, V 2.99, H 3.52, F 2.98, K 3.12
R19: G 4.09, A 3.72, F 3.15, E 4.66, I 3.66, H 3.68, D 4.41
H2: D 4.45, F 4.26, K 4.66, N 3.92, W 3.52, E 4.56, Q 3.94, L 4.15, I 3.46, T 4.67, M 3.61, A 2.87, P 5, V 2.83, G 4.62, C 3.57, S 4.42, Y 3.15
D8: A 3.53, Y 2.26, I 2.32, P 3, H 2.92, C 2.58, L 3.31, W 2.17, V 3.47, K 3.24, Q 3.69, G 2.89, F 3.44, T 3.24, N 3.33, E 4.24, S 3.77
T11: Y 2.74, N 3.56, R 3.53, K 4.58, A 3.51, G 3.77, C 3.62, D 3.81, L 3.35, E 3.9, M 3.07, P 3.57, V 3.68, W 2.01, H 3.64, F 2.78, S 3.62, I 3.12
S6: P 3.02, A 3.54, T 3.46, G 3.75, I 2.98, V 3.21, Y 2.06, H 2.91, D 4.53, F 2.54, E 4.15, C 3.22, K 3.03, N 4.08, R 3.56, W 1.88, Q 2.83, L 3.26
Y1: G 4.26, V 4.81, I 4.49, N 4.77, E 4.97, L 4.84, T 5.02, D 4.48, C 4.49, R 4.14, A 4.7, P 5.09, K 4.29, M 4.06, F 3.68, Q 4.61, H 4.97, S 4.67, W 4.2
S18: G 3.36, M 3.41, Y 2.56, V 3.23, A 3.72, C 2.87, E 3.8, H 3.35, D 4, L 2.74, W 1.77, I 3, T 3.81, N 3.31, P 3.92, Q 3.66, K 3.53, R 3.6
E9: G 3.67, S 2.91, D 3.79, P 3.51, C 2.48, R 1.99, A 2.78, L 2.09, Q 3.43, I 2.77, V 3.12, F 2.33, H 3.11, T 3.66, M 2.52, Y 2.58, W 1.87
Q5: A 3.66, W 1.98, Y 3.21, P 3.34, D 4.45, G 3.84, R 3, N 3.39, I 2.64, S 3.55, E 3.79, M 3.67, T 3.91, L 2.83, F 2.35, H 3.67, C 3.17
